{"source": "paper PMC6755802", "target": "IL-2 binary complex stapler scFv, recombinantly expressed (human)", "assay": "SPR; biotinylated scFv immobilised on Biacore SA chip at low density; analytes flowed 60 s; complexes pre-incubated 30 min at room temperature; 25 °C; HBS-P+ with 0.2% BSA; KD from equilibrium titration, 1:1 model; in Fig. 1D all proteins at 60 μM", "data": [{"substance": "Super-2/IL-2Rβ binary complex (from UniProt P60568 21-153; P14784 27-240)", "values": [{"measurement": "Kd", "value": 210, "unit": "nM"}]}]}
